Values quoted from earlier work as cited in PMC5735807.

Assays:
CD36 (Homo sapiens) = CD36 (Homo sapiens) (UniProt P16671)
Fas (Homo sapiens) = Fas (Homo sapiens) (UniProt P25445)
Fas (Homo sapiens), sequence (P25445 26-335): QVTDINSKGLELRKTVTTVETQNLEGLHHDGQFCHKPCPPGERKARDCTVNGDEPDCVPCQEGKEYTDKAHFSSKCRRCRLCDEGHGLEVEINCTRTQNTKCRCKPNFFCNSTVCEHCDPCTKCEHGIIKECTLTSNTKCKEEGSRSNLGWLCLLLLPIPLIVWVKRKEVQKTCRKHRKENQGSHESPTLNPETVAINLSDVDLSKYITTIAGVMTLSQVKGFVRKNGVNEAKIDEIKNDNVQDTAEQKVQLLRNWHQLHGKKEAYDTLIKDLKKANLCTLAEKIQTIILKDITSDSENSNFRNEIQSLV

FasL, sequence (P48023 1-81): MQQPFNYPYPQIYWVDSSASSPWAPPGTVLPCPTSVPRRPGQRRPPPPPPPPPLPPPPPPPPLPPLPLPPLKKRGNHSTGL
TSP1, sequence (P07996 19-1170): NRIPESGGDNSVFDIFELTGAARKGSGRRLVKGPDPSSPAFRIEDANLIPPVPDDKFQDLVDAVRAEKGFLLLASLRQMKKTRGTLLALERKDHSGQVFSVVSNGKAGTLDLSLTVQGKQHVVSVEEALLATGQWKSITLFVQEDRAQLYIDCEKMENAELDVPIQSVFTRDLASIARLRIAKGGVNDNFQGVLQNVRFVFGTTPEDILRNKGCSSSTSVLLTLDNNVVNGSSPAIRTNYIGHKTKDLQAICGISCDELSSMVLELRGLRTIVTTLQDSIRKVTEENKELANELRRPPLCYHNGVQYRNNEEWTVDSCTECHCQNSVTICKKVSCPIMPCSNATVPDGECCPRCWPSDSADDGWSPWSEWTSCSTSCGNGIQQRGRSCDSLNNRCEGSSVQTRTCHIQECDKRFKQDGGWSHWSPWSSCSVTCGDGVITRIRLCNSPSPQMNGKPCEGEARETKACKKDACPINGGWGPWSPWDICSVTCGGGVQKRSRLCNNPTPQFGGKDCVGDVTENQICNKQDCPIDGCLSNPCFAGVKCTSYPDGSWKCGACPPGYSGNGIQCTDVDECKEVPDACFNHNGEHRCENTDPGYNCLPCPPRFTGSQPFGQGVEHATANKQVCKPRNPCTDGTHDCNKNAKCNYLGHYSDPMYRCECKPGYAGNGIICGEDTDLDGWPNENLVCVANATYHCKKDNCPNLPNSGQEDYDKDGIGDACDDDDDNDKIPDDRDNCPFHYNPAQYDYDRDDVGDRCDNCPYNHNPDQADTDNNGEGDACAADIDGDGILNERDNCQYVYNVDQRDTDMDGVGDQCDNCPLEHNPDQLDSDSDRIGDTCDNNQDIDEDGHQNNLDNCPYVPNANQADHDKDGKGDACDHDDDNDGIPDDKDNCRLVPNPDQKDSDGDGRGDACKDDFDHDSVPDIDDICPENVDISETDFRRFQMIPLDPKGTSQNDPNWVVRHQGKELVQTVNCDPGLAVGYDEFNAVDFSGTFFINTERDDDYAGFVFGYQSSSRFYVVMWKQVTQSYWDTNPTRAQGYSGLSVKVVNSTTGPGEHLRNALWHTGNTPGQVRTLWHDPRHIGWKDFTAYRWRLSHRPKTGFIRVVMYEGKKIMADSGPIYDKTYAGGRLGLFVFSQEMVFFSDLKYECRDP
CD36 (Homo sapiens), sequence (P16671 2-472): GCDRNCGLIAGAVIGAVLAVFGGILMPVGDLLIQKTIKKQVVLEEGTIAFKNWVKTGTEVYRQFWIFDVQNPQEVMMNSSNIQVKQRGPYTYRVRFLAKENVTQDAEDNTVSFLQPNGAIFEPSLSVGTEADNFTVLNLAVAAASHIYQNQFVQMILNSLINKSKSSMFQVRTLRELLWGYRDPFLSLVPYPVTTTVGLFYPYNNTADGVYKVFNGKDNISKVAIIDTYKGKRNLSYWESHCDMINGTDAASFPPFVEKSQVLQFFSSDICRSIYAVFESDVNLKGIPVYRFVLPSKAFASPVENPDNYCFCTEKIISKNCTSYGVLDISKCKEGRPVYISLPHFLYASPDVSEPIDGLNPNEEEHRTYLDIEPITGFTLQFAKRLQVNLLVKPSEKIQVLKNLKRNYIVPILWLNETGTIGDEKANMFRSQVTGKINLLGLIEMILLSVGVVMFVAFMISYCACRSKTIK

| Substance | Kd (CD36 (Homo sapiens)) | Kd (Fas (Homo sapiens)) |
| --- | --- | --- |
| TSP1 (from UniProt P07996) | 230 nM |  |
| FasL (from UniProt P48023) |  | 0.4 nM |
